B1: CXCL11 (ligand, UniProt O14625 22-94, looked up)
chain: FPMFKRGRCLCIGPGVKAVKVADIEKASIMYPSNNCDKIEVIITLKENKGQRCLNPKSKQARLIIKKVERKNF
B2: CXCL8_T (K64A/K67A/R68A) mutant (ligand)
chain: SAKELRCQCIKTYSKPFHPKFIKELRVIESGPHCANTEIIVKLSDGRELCLDPKENWVQRVVEAFLAAAENS
modifications: 72-residue mature form by convention (mature numbering +27 = precursor); monomer/dimer equilibrium
B3: CCL5 (ligand, UniProt P13501 24-91, looked up)
chain: SPYSSDTTPCCFAYIARPLPRAHIKEYFYTSGKCSNPAVVFVTRKNRQVCANPEKKWVREYINSLEMS

Columns and labels:
[1] = target: Full-length, wild type recombinant human TSG-6 (human, UniProt P98066 18-277); test: SPR
[2] = target: Isolated Link module of human TSG-6 (Link_TSG6) (human, UniProt P98066 36-129); test: SPR
Chain of Isolated Link module of human TSG-6 (Link_TSG6) (P98066 36-129): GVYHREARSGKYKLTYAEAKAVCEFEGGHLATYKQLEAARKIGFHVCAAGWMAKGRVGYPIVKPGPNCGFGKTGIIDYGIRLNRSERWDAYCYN

Chain of Full-length, wild type recombinant human TSG-6 (P98066 18-277): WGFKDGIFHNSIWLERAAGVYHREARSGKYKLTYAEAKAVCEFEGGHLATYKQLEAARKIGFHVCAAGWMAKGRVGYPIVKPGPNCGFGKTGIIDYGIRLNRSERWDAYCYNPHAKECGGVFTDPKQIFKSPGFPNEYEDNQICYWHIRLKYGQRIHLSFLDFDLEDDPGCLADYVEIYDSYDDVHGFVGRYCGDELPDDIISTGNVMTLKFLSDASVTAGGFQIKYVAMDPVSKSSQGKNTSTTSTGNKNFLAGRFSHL

Binder | Kd [1] | koff [1] | kon [1] | Kd [2] | koff [2] | kon [2]
B1 | 16.4 nM | 0.00011 s⁻¹ | 6400 M⁻¹ s⁻¹ | – | – | –
B2 | 2110 nM | 0.0014 s⁻¹ | 640 M⁻¹ s⁻¹ | – | – | –
B3 | – | – | – | 2 nM | 0.00011 s⁻¹ | 57000 M⁻¹ s⁻¹

Source: publication PMC3988464 (Journal of immunology (Baltimore, Md. : 1950), 2014)
